Marks after values point to notes of the source that are not given here.
Assays:
[1] = Single fiber tensile strength and bleaching start after two-step enzymatic application
Experimental: (§1) Hair samples were cut into pieces 4-inches in length. The denier number (liner mass density) of each hair fiber was measured by Textechno Vibromat Instrument (Textechno Herbert Stein GmbH & Co. KG; Germany). The hair fibers were tested according to ASTM D 3822-01 (“Tensile Properties of Single Textile Fibers”; ASTM International, West Conshohocken, Pa., 2001), on an Instron testing system (Instron Model 1122 Tester; Instron, Mass.) at about 70° F. (approximately 21° C.) and 65% relative humidity. The treated area of the hair sample was placed in the middle of the gauge and both ends were gripped on the test heads. Both fiber ends were attached on a piece of tape, respectively, for easy handling and gripping on the test heads. The test used 2-inch (5.1 cm) gauge length, […], and 1.2 inch/min (3 cm/min) pulling rate. The force-strain curve of the fiber was recorded during the test. The tenacity at maximum (gf/den) was calculated by dividing maximum force (gf) by denier number (den). Note that (gf/den)/11.33=Newtons/tex (N/tex).
In a two-step application, the hair strands are first treated with perhydrolase solutions to allow the enzyme to bind hair. The hair strands are then dried or rinsed with buffer and dried. The rinse step is intended to remove excess unbound enzyme from the hair. The hair strands are soaked in triacetin and H2O2 solutions. The application is repeated for multiple times.
One experiment was carried out with C277S-HC263 and untargeted T. maritima variant C277S using the following protocol: • 1. Enzyme solutions comprising 0.5 mg/mL enzyme in 50 mM phosphate buffer (pH 8) were made with or without 10 wt % urea. • 2. Seven (7) hair strands were soaked in 0.2 mL of an enzyme solution for 10 min and then dried under N2 without prior rinsing. • 3. The hair strands were then soaked in 0.2 mL of a pH 8 solution containing 100-mM triacetin and 250-mM H2O2 for 15 min, dried, then rinsed with DI water and then dried again. • 4. Steps 2-3 were repeated up to 15 times.
Another experiment was carried out with C277S-HC263 (SEQ ID NO: 288), CPAH-HC263 (SEQ ID NO: 294), CPAH-HC1010 (SEQ ID NO: 295) and untargeted C277S using the following protocol: • 1. Enzyme solutions comprising 1.0 mg/mL enzyme in 50 mM phosphate buffer (pH 6) were prepared. For solutions containing two enzymes, the concentration of each enzyme was approximately 0.5 mg/mL. • 2. Seven (7) hair strands were soaked in 0.2 mL of an enzyme solution for 10 min, rinsed with 50 mM phosphate buffer (pH 6), and then dried under N2. • 3. The dried hair strands were then soaked into 0.2 mL of 50 mM phosphate buffer solution (pH 8) comprising 100 mM triacetin and 250 mM H2O2 for 15 min, dried, then rinsed with DI water and then dried again. • 4.

[2] = One-step enzymatic PAA generation, HPLC peracetic acid assay; assay type: biochemical
Experimental: Determination of the peracetic acid (PAA) concentration in the reaction mixtures was performed according to the method described by Pinkernell et al., Anal. Chem. 1997, 69(17):3623-3627. Aliquots (0.040 mL) of the reaction mixture were removed at predetermined times and mixed with 0.960 mL of 5 mM phosphoric acid in water; adjustment of the pH of the diluted sample to less than pH 4 immediately terminated the reaction. The resulting solution was filtered using an ULTRAFREE® MC-filter unit (30,000 Normal Molecular Weight Limit (NMWL), Millipore cat #UFC3LKT 00) by centrifugation for 2 min at 12,000 rpm. An aliquot (0.100 mL) of the resulting filtrate was transferred to 1.5-mL screw cap HPLC vial (Agilent Technologies, Palo Alto, Calif.; #5182-0715) containing 0.300 mL of deionized water, then 0.100 mL of 20 mM MTS (methyl-p-tolyl-sulfide) in acetonitrile was added, the vials capped, and the contents briefly mixed prior to a 10 min incubation at ca. 25° C. in the absence of light. To each vial was then added 0.400 mL of acetonitrile and 0.100 mL of a solution of triphenylphosphine (TPP, 40 mM) in acetonitrile, the vials re-capped, and the resulting solution mixed and incubated at ca. 25° C. for 30 min in the absence of light. To each vial was then added 0.100 mL of 10 mM N,N-diethyl-m-toluamide (DEET; HPLC external standard) and the resulting solution analyzed by HPLC (Waters Alliance 2695, Waters Corporation; MA).
Supelco Discovery C8 column (10 cm×4.0-mm, 5 μm) (cat. #569422-U) w/precolumn Supelco Supelguard Discovery C8 (Sigma-Aldrich; cat #59590-U); 10 microliter injection volume; gradient method with CH3CN (Sigma-Aldrich; #270717) and deionized water at 1.0 mL/min and ambient temperature:
(§2) The first method (referred to herein as the “one-step approach”) comprises combining different amounts of at least one CE-7 perhydrolase with triacetin (an example of a suitable ester substrate) and hydrogen peroxide to generate peracetic acid. Hair bundles were inserted into “one step approach” solutions for 15 min immediately after mixing the enzyme solution with triacetin solution (final concentration was about 100 mM) and H2O2 solution (final concentration was about 250 mM). The hair samples were rinsed with water and dried. The method was repeated for another 15 times (total application was 16 times). In one experiment, two perhydrolase enzymes were used, i.e., untargeted T. maritima variant C277S (“C277S”; “PAH”; SEQ ID NO: 293) and “C277S-HC263” (SEQ ID NO: 288). The concentration of peracetic acid in solution after 15 min was evaluated by HPLC.

[3] = Single fiber tensile strength after one-step enzymatic application
Experimental: as §1, §2

[4] = two-step with buffer rinse, 1.0 mg/mL enzyme pH 6, 100 mM triacetin, 250 mM H2O2, up to 13 repeats
[5] = two-step without rinse, 0.5 mg/mL enzyme pH 8, urea 0 wt %
[6] = two-step without rinse, 0.5 mg/mL enzyme pH 8, urea 0 wt %, 100 mM triacetin, 250 mM H2O2
[7] = two-step without rinse, 0.5 mg/mL enzyme pH 8, urea 10 wt %, 100 mM triacetin, 250 mM H2O2

Molecule | Tenacity @ max [1, 4] | Bleaching Start [1, 5] | Tenacity @ max [1, 6] | Bleaching Start ([1]; two-step without rinse, 0.5 mg/mL enzyme pH 8, urea 10 wt %) | Tenacity @ max [1, 7] | PAA ([2]; 0.05 mg/mL enzyme, urea 10 wt %, after 15 min) | PAA ([2]; 0.25 mg/mL enzyme, urea 10 wt %, after 15 min) | PAA ([2]; 0.5 mg/mL enzyme, urea 10 wt %, after 15 min) | Ten. @ Max ([3]; 0.05 mg/mL enzyme, urea 10 wt %, 15 min × 16) | Ten. @ Max ([3]; 0.25 mg/mL enzyme, urea 10 wt %, 15 min × 16, average of less than 3 strands) | Ten. @ Max ([3]; 0.5 mg/mL enzyme, urea 10 wt %, 15 min × 16) | PAA generated ([2]; 0.05 mg/mL enzyme) | PAA ([2]; 0.05 mg/mL enzyme, urea 0 wt %, after 15 min) | PAA ([2]; 0.25 mg/mL enzyme, urea 0 wt %, after 15 min) | PAA ([2]; 0.5 mg/mL enzyme, urea 0 wt %, ~100 mM triacetin, ~250 mM H2O2, after 15 min) | perhydrolase activity lower than C277S ([2]; same weight basis, under testing condition) | Ten. @ Max ([3]; 0.05 mg/mL enzyme, urea 0 wt %, 15 min × 16) | Ten. @ Max ([3]; 0.25 mg/mL enzyme, urea 0 wt %, 15 min × 16, average of less than 3 strands) | Ten. @ Max ([3]; 0.5 mg/mL enzyme, urea 0 wt %, 15 min × 16)
C277S: non-targeted C277S variant of the Thermotoga maritima perhydrolase, un-targeted control (protein, listed as Thermotoga maritima) MAFFDLPLEELKKYRPERYEEKDFDEFWEETLAESEKFPLDPVFERMESHLKTVEAYDVTFSGYRGQRIKGWLLVPKLEEEKLPCVVQYIGYNGGRGFPHDWLFWPSMGYICFVMDTRGQGSGWLKGDTPDYPEGPVDPQYPGFMTRGILDPRTYYYRRVFTDAVRAVEAAASFPQVDQERIVIAGGSQGGGIALAVSALSKKAKALLCDVPFLCHFRRAVQLVDTHPYAEITNFLKTHRDKEEIVFRTLSYFDGVNFAARAKIPALFSVGLMDNISPPSTVFAAYNYYAGPKEIRIYPYNNHEGGGSFQAVEQVKFLKKLFEKG | 1.7 gf/den | 13th | 0.7 gf/den | 12th | 0.6 gf/den | 6448 ppm | 14053 ppm | 13656 ppm | 0.3 gf/den | 0.6^# gf/den | 0.6 gf/den | – | – | – | – | – | – | – | –
C277S-HC263: C277S variant of Thermotoga maritima perhydrolase fused via a flexible linker to hair-binding domain HC263 (protein) MAFFDLPLEELKKYRPERYEEKDFDEFWEETLAESEKFPLDPVFERMESHLKTVEAYDVTFSGYRGQRIKGWLLVPKLEEEKLPCVVQYIGYNGGRGFPHDWLFWPSMGYICFVMDTRGQGSGWLKGDTPDYPEGPVDPQYPGFMTRGILDPRTYYYRRVFTDAVRAVEAAASFPQVDQERIVIAGGSQGGGIALAVSALSKKAKALLCDVPFLCHFRRAVQLVDTHPYAEITNFLKTHRDKEEIVFRTLSYFDGVNFAARAKIPALFSVGLMDNISPPSTVFAAYNYYAGPKEIRIYPYNNHEGGGSFQAVEQVKFLKKLFEKGGPGSGGAGSPGSAGGPGSPSAQSQLPDKHSGLHERAPQRYGPEPEPEPEPIPEPPKEAPVVIEKPKPKPKPKPKPPAHDHKNQKETHQRHAAGSGGGGSPHHHHHH | 1.7 gf/den | 15th | 1.2 gf/den | – | 1.7 gf/den | – | – | – | – | – | – | about 0.2 wt % | 1983 ppm | 3948 ppm | 4132 ppm | 2-3 times | 1.0 gf/den | 0.4^# gf/den | 0.7 gf/den
